Measurements from patent US20100280227A1 (Genentech, published 2010).
Where a chain is given by its changes, count along the chain named. Several values for one entry are separate records, joined by “and”; a condition that tells them apart may be missing. Equal entries are not always repeated.

T1: mouse BR3 extracellular domain (mouse, UniProt Q9D8D0 1-64)
T1 construct: also called mBR3-ECD; mBR-ECD
T1 sequence: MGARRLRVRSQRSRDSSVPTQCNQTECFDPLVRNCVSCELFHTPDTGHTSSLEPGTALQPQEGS

B1: Hu11G9-36 Fab (Fab, V domains shown)
VH: EVQLVESGGGLVQPGGSLRLSCAASGDSINFGYWNWVRQAPGKGLEWVGYISYSGSTYYNPSLKSRFTISRDTSKNTFYLQMNSLRAEDTAVYYCAALNDLFLYFDVWGQGTLVTVSS
VL: DIQMTQSPSSLSASVGDRVTITCRSSQSLVHSNGNTYLHWYQQKPGKAPKLLIYKVSNRFSGVPSRFSGSGSGTDFTLTISSLQPEDFATYYCSQSTHVPPFTFGQGTKVEIKR
notes: Fab
B2: Hu11G9-36 IgG (antibody, V domains shown)
VH: B1 VH
VL: B1 VL
notes: humanized IgG
B3: Hu2.1-46 Fab (Fab, V domains shown)
VH: EVQLVESGGGLVQPGGSLRLSCAASGDSITRGYWNWVRQAPGKGLEWVGYINYSGTTYYNPSLKSRFTISRDTSKNTFYLQMNSLRAEDTAVYYCANSNFYGAMDYWGQGTLVTVSS
VL: DIQMTQSPSSLSASVGDRVTITCRASESVDDYGISFMHWYQQKPGKAPKLLIYRASDLESGVPSRFSGSGSGTDFTLTISSLQPEDFATYYCQQTSKDPWTFGQGTKVEIKR
notes: Fab
B4: Hu2.1-30 Fab (Fab, V domains shown)
VH: B3 VH with S98L, F100Y
VL: B3 VL
notes: Fab
B5: Hu2.1-40 Fab (Fab, V domains shown)
VH: B3 VH with N97T, S98T, N99L, F100P
VL: B3 VL
notes: Fab
B6: Hu2.1-40L Fab (Fab, V domains shown)
VH: B3 VH with F78L, N97T, S98T, N99L, F100P
VL: B3 VL
notes: Fab
B7: Hu2.1-94 Fab (Fab, V domains shown)
VH: B3 VH with F78L, N97T, N99H, F100N, Y101T, A103E
VL: B3 VL
notes: Fab
B8: Hu2.1-RL Fab (Fab, V domains shown)
VH: B3 VH with F78L, N97T, S98P, N99H, F100T
VL: B3 VL
notes: Fab
B9: Hu11G9-46 IgG (antibody, V domains shown)
VH: B1 VH with N30T, F31S, A97G, F102Y
VL: B1 VL
notes: humanized IgG
B10: chimeric 9.1 Fab (Fab, V domains shown)
VH: EVKLVESGGGLVQPGGSLRLSCAISGFTVTAYYMSWVRQPPGKALEWLGFIRDKANGYTTEYNPSVKGRFTISRDNSQSIFYLQMNTLRAEDSATYYCAQVRRALDYWGQGTTVTVSA
VL: DIVMSQSPSSLAVSVGEKVTMSCKSSQSLLYSSNQNNYLAWYQQKPGQSPKLLIYWASTRESGVPDRFTGSGSGTDFTLTISSVKAEDLAVYYCQQYYTYPYTFGGGT
notes: Fab with murine variable domains; also called Ch 9.1 Fab
B11: 3 (Fab, V domains shown)
VH: EVQLVESGGGLVQPGGSLRLSCAASGFTISSNSIHWVRQAPGKGLEWVAWVTPSGGSTDYADSVKGRFTISADTSKNTAYLQMNSLRAEDTAVYYCARRVCYNRLGVCAGGMDYWGQGTLVTVSS
VL: DIQMTQSPSSLSASVGDRVTITCRASQDVSTAVAWYQQKPGKAPKLLIYSASFLYSGVPSRFSGSGSGTDFTLTISSLQPEDFATYYCQQSRISPPTFGQGTKVEIKR
notes: also called V3-3
B12: 5 (Fab, V domains shown)
VH: B11 VH with N32S, V51I, S54G, G55H
VL: B11 VL with S94T
notes: also called V3-5
B13: 9 (Fab, V domains shown)
VH: B11 VH with V51I, G55D, S57N
VL: B11 VL with R92H, I93N, S94T
notes: also called V3-9
B14: 16 (Fab, V domains shown)
VH: B11 VH with T28S, V51I, S54T, G55H
VL: B11 VL with S94T
notes: also called V3-16
B15: 19 (Fab, V domains shown)
VH: B11 VH with T28S, S30A, S31R, N32S, V51I, T52L, G55A
VL: B11 VL with S94T
notes: also called V3-19
B16: 24 (Fab, V domains shown)
VH: B11 VH with T28S, S30R, N32I, V51I, S54F, G55N, S57T
VL: B11 VL with R92L, S94T
notes: also called V3-24
B17: 27 (Fab, V domains shown)
VH: B11 VH with V51I, G55D, S57N, R104H
VL: B11 VL with I93M
notes: also called V3-27
B18: 34 (Fab, V domains shown)
VH: B11 VH with T28S, S31N, N32H, G55Y, S57I
VL: B11 VL with I93T, S94T
notes: also called V3-34
B19: 35 (Fab, V domains shown)
VH: B11 VH with S54G, G55V
VL: B11 VL with R92L, I93M, S94T
notes: also called V3-35
B20: 37 (Fab, V domains shown)
VH: B11 VH with T28S, S31R, N32R, V51I, S54L, G55Y, D59H
VL: B11 VL
notes: also called V3-37
B21: 41 (Fab, V domains shown)
VH: B11 VH with T28S, S30R, S31N, T52L, G55N, S57V
VL: B11 VL with R92G
notes: also called V3-41; clone 41
B22: V3-46 phage clone (Fab, V domains shown)
VH: B11 VH with S31N, N32S, T52L, G55V, S57F
VL: B11 VL with R92Q
notes: also called V3-46 WT; clone 46
B23: V3-46s-1 phage clone (Fab, V domains shown)
VH: B11 VH with N32S, T52L, G55V, S57F
VL: DIQMTQSPSSLSASVGDRVTITCRASEDIATSVAWYQQKPGKAPKLLIFAASFLYSGVPSRFSGSGSGTDFTLTISSLQPEDFATYYCQQSQISPPTFGQGTKVEIK
B24: V3-46s-7 phage clone (Fab, V domains shown)
VH: B11 VH with N32S, T52L, G55V, S57F
VL: B23 VL with A30S, T31S, A50S, Y55F, Q92E, I93V
B25: V3-46s-10 phage clone (Fab, V domains shown)
VH: B11 VH with N32S, T52L, G55V, S57F
VL: B23 VL with A30S, T31S, S32A, F53Y, Y55F, I93V
B26: V3-46s-12 phage clone (Fab, V domains shown)
VH: B11 VH with S30A, N32S, T52L, G55V, S57F
VL: B23 VL with A30S, T31S, S32A
notes: differs from V3-46s in CDR-H1 as well
B27: V3-46s-13 phage clone (Fab, V domains shown)
VH: B11 VH with N32S, T52L, G55V, S57F
VL: B23 VL with D28E, S32A, F53Y, Y55F, I93V, S94A
B28: V3-46s-29 phage clone (Fab, V domains shown)
VH: B11 VH with N32S, T52L, G55V, S57F
VL: B23 VL with D28E, S32A, Q92E, I93V
B29: V3-46s-31 phage clone (Fab, V domains shown)
VH: B11 VH with N32S, T52L, G55V, S57F
VL: B23 VL with E27Q, F53Y, Y55F, I93V
B30: V3-46s-33 phage clone (Fab, V domains shown)
VH: B11 VH with N32S, T52L, G55V, S57F
VL: B23 VL with D28E, A30S, S32A, A50S, F53Y, Q92E, I93V
B31: V3-46s-34 phage clone (Fab, V domains shown)
VH: B11 VH with N32S, T52L, G55V, S57F
VL: B23 VL with A30S, T31S, S32A, A50S, Y55F, I93V

Each binder was assayed against T2, human BR3 extracellular domain (human, UniProt Q96RJ3 1-61) (assay: SPR, BR3 ECD on chip). Details: not given.
T2 construct: biotinylated where used as tracer; also called hBR3-ECD; BR3-ECD
With B1 the Kd was 0.7 nM and 0.65 nM, the koff was 0.00105 s⁻¹ and 0.000954 s⁻¹ and the kon was 1.49e+06 M⁻¹ s⁻¹ and 1.47e+06 M⁻¹ s⁻¹.
B2 was tested, and the Kd was 0.024 nM, the koff was 4.1e-05 s⁻¹ and the kon was 1.71e+06 M⁻¹ s⁻¹.
Work on B3 yielded a Kd of 0.27 nM, a koff of 0.000693 s⁻¹ and a kon of 2.55e+06 M⁻¹ s⁻¹.
In the case of B4, the Kd is reported as 0.08 nM and 0.059 nM, the koff is reported as 0.000311 s⁻¹ and 0.000232 s⁻¹ and the kon is reported as 3.84e+06 M⁻¹ s⁻¹ and 3.94e+06 M⁻¹ s⁻¹.
B5 gave a Kd of 8.67 nM, a koff of 0.000923 s⁻¹ and a kon of 110000 M⁻¹ s⁻¹.
Binder B6 has a Kd of 35.8 nM, a koff of 0.00156 s⁻¹ and a kon of 40000 M⁻¹ s⁻¹.
Binder B7 has a Kd of 0.82 nM, a koff of 0.00114 s⁻¹ and a kon of 1.39e+06 M⁻¹ s⁻¹.
B8 was tested, and the Kd was 10 nM, the koff was 0.00176 s⁻¹ and the kon was 180000 M⁻¹ s⁻¹.
With B9 the Kd was 0.025 nM, the koff was 4.2e-05 s⁻¹ and the kon was 1.66e+06 M⁻¹ s⁻¹.

The binders below were run against T3, variant human BR3-Fc fusion (assay: SPR, vBR3-Fc on chip). Details: not given.
T3 construct: produced in CHO cells; also called vBR3-Fc; vhBR3-Fc
With B1 the Kd was 2.31 nM and 2.08 nM, the koff was 0.00104 s⁻¹ and 0.000968 s⁻¹ and the kon was 450000 M⁻¹ s⁻¹ and 466000 M⁻¹ s⁻¹.
B2 was tested, and the Kd was 0.4 nM, the koff was 0.000231 s⁻¹ and the kon was 576000 M⁻¹ s⁻¹.
B3 showed a Kd of 0.13 nM, a koff of 0.000257 s⁻¹ and a kon of 1.96e+06 M⁻¹ s⁻¹.
With B4 the Kd was 0.07 nM and 0.092 nM, the koff was 0.000157 s⁻¹ and 0.000222 s⁻¹ and the kon was 2.18e+06 M⁻¹ s⁻¹ and 2.41e+06 M⁻¹ s⁻¹.
Work on B5 yielded a Kd of 3.2 nM, a koff of 0.00123 s⁻¹ and a kon of 380000 M⁻¹ s⁻¹.
Binder B6 has a Kd of 3.49 nM, a koff of 0.00121 s⁻¹ and a kon of 350000 M⁻¹ s⁻¹.
Work on B7 yielded a Kd of 1.67 nM, a koff of 0.000804 s⁻¹ and a kon of 480000 M⁻¹ s⁻¹.
With B8 the Kd was 11.2 nM, the koff was 0.00139 s⁻¹ and the kon was 120000 M⁻¹ s⁻¹.
In the case of B9, the Kd is reported as 0.288 nM, the koff is reported as 0.000186 s⁻¹ and the kon is reported as 648000 M⁻¹ s⁻¹.

Same assay, conditions: 140 RU BR3-Fc immobilized
Binder B10 has a Kd of 20 nM.

Same assay, conditions: 380 RU BR3-Fc immobilized
B10 showed a Kd of 21.8 nM.

These binders were tested against T2, human BR3 extracellular domain (assay: phage competition ELISA). Details: not given.
In the case of B11, the IC50 is reported as 1.3 nM.
B12 gave an IC50 of 2.5 nM.
B13 was tested, and the IC50 was 11.6 nM.
With B14 the IC50 was 1.7 nM.
For B15, the IC50 was 1.3 nM.
Binder B16 has an IC50 of 0.6 nM.
B17 showed an IC50 of 9.4 nM.
Work on B18 yielded an IC50 of 0.3 nM.
Work on B19 yielded an IC50 of 0.8 nM.
B20 showed an IC50 of 0.7 nM.
B21 was tested, and the IC50 was 0.4 nM.
B22 gave an IC50 of 0.2 nM.

What follows are binders tested against T1, mouse BR3 extracellular domain (assay: phage competition ELISA). Details: not given.
B11 was tested, and the IC50 was 16.1 nM.
B12 was tested, and the IC50 was 40.9 nM.
Work on B13 yielded an IC50 of 6.1 nM.
B14 showed an IC50 of 16.8 nM.
B15 was tested, and the IC50 was 1.8 nM.
B16 gave an IC50 of 23 nM.
With B17 the IC50 was 1.4 nM.
In the case of B18, the IC50 is reported as 6.4 nM.
Work on B19 yielded an IC50 of 21.9 nM.
Work on B20 yielded an IC50 of 1.3 nM.
In the case of B21, the IC50 is reported as 0.6 nM.
B22 showed an IC50 of 0.8 nM.

Target: T2, human BR3 extracellular domain
Test: phage competition ELISA
Details: not given
Remark: another data set of the same source
For B23, the IC50 was 0.07 nM.
B24 showed an IC50 of 0.19 nM.
Work on B25 yielded an IC50 of 0.05 nM.
B26 was tested, and the IC50 was 0.053 nM.
With B27 the IC50 was 0.08 nM.
Work on B28 yielded an IC50 of 0.08 nM.
Work on B29 yielded an IC50 of 0.12 nM.
Work on B30 yielded an IC50 of 0.1 nM.
B31 showed an IC50 of 0.058 nM.

Target: T1, mouse BR3 extracellular domain
Test: phage competition ELISA
Details: not given
Remark: another data set of the same source
In the case of B23, the IC50 is reported as 0.3 nM.
B24 gave an IC50 of 0.96 nM.
Binder B25 has an IC50 of 0.193 nM.
B26 showed an IC50 of 0.209 nM.
B27 showed an IC50 of 0.713 nM.
Binder B28 has an IC50 of 0.55 nM.
Work on B29 yielded an IC50 of 0.342 nM.
Work on B30 yielded an IC50 of 0.724 nM.
For B31, the IC50 was 0.79 nM.
